Blank lines part the entries; values can stand above or below the binder they belong to.
What was measured:
[1] = biological target: T1, endogenous APOL2 in human podocytes (human, UniProt Q9BQE5 1-337); assay: western blot of WT and APOL1 KO podocyte lysates
T1 construct: In podocyte lysates (western blot) or fixed, permeabilized podocytes; also called 36 kDa APOL2 band
T1 sequence (looked up): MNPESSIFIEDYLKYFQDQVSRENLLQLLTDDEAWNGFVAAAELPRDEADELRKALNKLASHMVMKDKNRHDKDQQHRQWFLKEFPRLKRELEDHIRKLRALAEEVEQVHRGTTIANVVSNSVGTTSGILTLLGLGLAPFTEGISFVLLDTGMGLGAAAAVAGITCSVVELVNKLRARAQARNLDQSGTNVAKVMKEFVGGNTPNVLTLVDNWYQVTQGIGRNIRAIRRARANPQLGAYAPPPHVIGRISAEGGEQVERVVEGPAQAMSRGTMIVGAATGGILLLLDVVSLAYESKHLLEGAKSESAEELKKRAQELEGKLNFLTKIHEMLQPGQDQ
Procedure: The results corroborate the IF cross-reactivities, except for APOL4 cross-reactivity, which appears to be conformationally sensitive. The 3.6D12 antibody continues to recognize APOL2 in the APOL1 KO podocytes (generated as described in Example 1). Note the 4.17A5 western is shown at a longer exposure than the others.
Following three TBST washes, anti-mouse (GE Healthcare NA931V, 1:3000) or anti-rabbit HRP (Jackson 711-036-152, 1:8000) was added as secondary antibody. After 1 h, membranes were washed and protein detected using ECL prime (Amersham RPN2232) exposed to MR film (Kodak). Anti-actin HRP-conjugated antibody (clone 13E5, Cell Signaling Technologies 5125S at 1:5000) or calnexin (Abcam Ab22595 at 1:1000) was used as a loading control. For peptide mapping, 2 μl of 1 mM peptides in DMSO were boiled in 5× sample buffer and loaded on 10% Tris-Glycine gel and run using MES buffer. Cell pellets of Sf9 lysates were lysed in native RIPA (NP-40) lysis buffer and run on 10% Tris-Glycine gels.

[2] = biological target: T2, endogenous human APOL1 (wild-type immortalized podocytes; also JHH-1 cells, kidney and liver tissue) (human, UniProt O14791 28-398); assay: flow cytometry, live WT and iAPOL1-G0 podocytes
T2 construct: whole, on cells; Cell or tissue and permeabilization are told under assay; also called podocyte APOL1; endogenous APOL1
T2 sequence (looked up): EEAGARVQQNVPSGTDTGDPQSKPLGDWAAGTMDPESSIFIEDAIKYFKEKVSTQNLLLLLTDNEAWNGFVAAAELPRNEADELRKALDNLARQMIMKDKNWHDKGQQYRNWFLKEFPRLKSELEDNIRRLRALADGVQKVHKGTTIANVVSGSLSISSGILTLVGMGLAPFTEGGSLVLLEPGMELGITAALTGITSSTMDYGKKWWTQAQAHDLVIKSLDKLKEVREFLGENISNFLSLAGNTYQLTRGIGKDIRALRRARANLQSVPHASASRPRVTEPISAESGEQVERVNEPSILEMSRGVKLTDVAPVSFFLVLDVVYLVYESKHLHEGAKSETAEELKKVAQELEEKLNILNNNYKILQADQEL
Procedure: (§1) Cells were harvested with 5 mM EDTA in PBS, washed once with growth media and twice with PBS. Approximately 0.5×10⁶/m1 of cells resuspended in PBS were incubated with anti-APOL1 antibodies for 1 h on ice. Following two PBS washes, 2 μg/ml of Alexa488 anti-mouse or anti-rabbit (Invitrogen A11029 and A21206, respectively) was used for 1 h on ice for detection. Cells were washed twice in PBS and resuspended in PBS with 1 μg/ml propidium iodide. Signals were read in a FACSCalibur3 (Becton Dickinson), with the exception of FIG. 8A and FIG. 14, which used a FACSCelesta, and data was analyzed using FlowJo v8.4.5. Mean fluorescence intensities were plotted in PRISM v7 after subtraction of secondary antibody alone background. For low pH experiments, cells were incubated with the antibodies in the presence of PBS pH 7.0 or PBS pH 5.5 for an hour on ice and detected with secondary antibodies at neutral pH.
More importantly, there were also differential APOL1 accessibilities between serum APOL1 and kidney disease-relevant podocytes (FIG. 18B). Some antibodies bound surface APOL1 in WT and iAPOL1 podocytes (FIG. 6A, 6B), but not circulating APOL1 (as judged by lack of trypanolytic blockade, FIG. 6C) and vice versa. […] Conversely, 3.3B6 and 4.17A5 were among the top trypanolytic blockers, but recognized the podocyte surface relatively weakly. […]

[3] = biological target: T3, iAPOL1-G0 in podocytes (EIK variant, doxycycline-inducible, in APOL1 KO podocytes) (human, UniProt O14791 29-398); assay: flow cytometry, iAPOL1-G0 podocytes, 1 µg/ml
T3 construct: Stably re-expressed untagged APOL1 isoform A in APOL1 KO clone 89401-3; also called iAPOL1-G0 podocytes; iAPOL1 podocytes
T3 chain: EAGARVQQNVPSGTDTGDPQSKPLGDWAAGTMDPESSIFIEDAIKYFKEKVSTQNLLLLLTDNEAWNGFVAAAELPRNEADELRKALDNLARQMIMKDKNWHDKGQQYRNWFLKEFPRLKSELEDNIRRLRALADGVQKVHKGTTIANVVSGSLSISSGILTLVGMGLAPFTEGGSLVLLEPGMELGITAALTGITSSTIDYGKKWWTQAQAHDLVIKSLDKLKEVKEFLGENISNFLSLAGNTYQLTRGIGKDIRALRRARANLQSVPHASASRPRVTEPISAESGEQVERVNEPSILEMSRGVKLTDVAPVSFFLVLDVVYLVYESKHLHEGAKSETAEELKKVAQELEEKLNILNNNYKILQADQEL
Procedure: APOL1 KO (black line) is completely negative, overlapping with Alexa488 anti-mouse secondary alone (grey line) as expected. A representative histogram from 3-4 experiments is shown.
as §1

binding result [1]: binds
B1: antibody 3.6D12 (antibody, V domains shown)
VH: EVMLVESGGGLVRPGGSLKLSCTASGFTFSRCAMSWVRQTPEKRLEWVSAISRDSTYTYYSDSVKGRFTVSRDNAKNTLYLQMSSLRSEDTAMYYCARQIDDYYVDALDYWGQGTSVTVSS
VL: DVQITQSPSYLAASPGETITINCRASKIISKYLAWYQEKPGKTIKLLIYSGFTLQSGIPSRFSGSGSGTDFTLTISSLEPEDFAMYYCQQHNEYPLTFGAGTKLEIKR
notes: Mouse mAb (Method #3), cloned as murine IgG2a LALAPG; Early screens used hybridoma-purified antibody; also called mAb 3.6D12

B2: antibody 4.17A5 (antibody, V domains shown)
VH: QVQLQQSGPELLKPGASVKISCKGSGYAFSNSWINWVKLRPGQGLEWIGRIYPGDGDTKYNGKFKGKATLTADKSSSTAHMQLRSLTSVDSAVYFCARFPFGKYEGPGAMDYWGQGTSVTVSS
VL: DIQMTQTTSSLSASLGDRVTISCRASQDISSYLNWYQQKPDGTIKLLIYYTSRLHSGVPSRFSGSGSGTDFSLTISNLEQEDIATYFCQQGNTLPYTFGGGTKLEIKR
notes: Mouse mAb (Method #4), cloned as murine IgG2a LALAPG; also called mAb 4.17A5
binding result [2]: binds

binding result [3]: binds
B3: antibody 3.7D6 (antibody, V domains shown)
VH: QIQLVQSGPDLKKPGETVKISCRTSGYAFTNYGVNWVKQAPGKGLKWMGWINTNTGQTTYAEEFRGRFAISLETSASTAFLTISNLKNEDSATYFCARLIYDGDYISSDFWGQGTTLTVSS
VL: DIQMTQSPDSLSASVGETVTITCGASENIYGALNWYQRKQGKSPQLLIYGATNLADGMSSRFSGSRSGRQYSLKISSLHPDDVATYYCQNALSMPYTFGGGTKLEIKR
notes: Mouse mAb, cloned as murine IgG2a LALAPG; those versions are not written separately; also called PFD antibody 3.7D6

Reference: US20230071609A1 (Genentech, published 2023)
